Test results published in patent US20050203025A1.

What was measured:
[1] = target: desmocollin (on Fsk-7.1 mouse mammary epithelial cells) (mouse); test: cell-based or functional assay
[2] = target: desmoglein (on Fsk-7.1 mouse mammary epithelial cells) (mouse); test: cell-based or functional assay

Binder | % (single cells + clusters <4 cells); alveolar aggregate formation of Fsk-7.1 cells, 24 hr, no desmoglein peptide [1] [%] | % (single cells + clusters <4 cells); alveolar aggregate formation of Fsk-7.1 cells, 24 hr, together with H-…-OH [1] [%] | % (single cells + clusters <4 cells); alveolar aggregate formation of Fsk-7.1 cells, 24 hr, together with Ac-CRALC-NH2 [1] [%] | % (single cells + clusters <4 cells); alveolar aggregate formation of Fsk-7.1 cells, 24 hr, no desmocollin peptide [2] [%] | % (single cells + clusters <4 cells); alveolar aggregate formation of Fsk-7.1 cells, 24 hr, together with Ac-CFATC-NH2 [2] [%] | % (single cells + clusters <4 cells); alveolar aggregate formation of Fsk-7.1 cells, 24 hr, together with Ac-CYASC-NH2 [2] [%] | % (single cells + clusters <4 cells); alveolar aggregate formation of Fsk-7.1 cells, 24 hr, together with Ac-CYATC-NH2 [2] [%] | % (single cells + clusters <4 cells); alveolar aggregate formation of Fsk-7.1 cells, 24 hr, together with H-…-OH [2] [%]
H-LTAFATTPDG-OH [H-…-OH (SEQ ID NO: 5284)] | 28 | 36.5 | – | – | – | – | – | –
Ac-CFATC-NH2 (also: cyclic peptide, bond of cyclisation not given here) [Ac-CFATC-NH2 (SEQ ID NO: 5009)] | 13.1 | 39.5 | 33.6 | – | – | – | – | –
H-LTGYALDSRG-OH [H-…-OH (SEQ ID NO: 5283)] | – | – | – | 21.7 | 39.5 | 57.2 | 58.6 | 36.5
Ac-CYATC-NH2 (also: cyclic peptide, bond of cyclisation not given here) [Ac-CYATC-NH2 (SEQ ID NO: 4683)] | 18.2 | 58.6 | 19.6 | – | – | – | – | –
Ac-CRALC-NH2 (also: cyclic peptide, bond of cyclisation not given here) [Ac-CRALC-NH2 (SEQ ID NO: 4236)] | – | – | – | 12.9 | 33.6 | 37.2 | 19.6 | –
Ac-CYASC-NH2 (also: cyclic peptide, bond of cyclisation not given here) [Ac-CYASC-NH2 (SEQ ID NO: 5156)] | 12.9 | 57.2 | 37.2 | – | – | – | – | –
